Columns and labels:
Assay in all cases: NADH oxidation assay
Type in all cases: biochemical, Heyndrickxia coagulans
NADH oxidation assay [1] = substrate: O=C(O)C(=O)Cc1ccccc1; settings: 0.2 mM NADH, 5 mM FDP (fructose 1,6-bisphosphate), 50 mM Tris-HCl pH 7.0, 50°C
Text: (§1) NADH oxidation assay on L-nLDH

NADH oxidation assay [2] = substrate: CC(=O)C(=O)O; settings: 0.2 mM NADH, 5 mM FDP (fructose 1,6-bisphosphate), 50 mM Tris-HCl pH 7.0, 50°C
Text: as §1

NADH oxidation assay [3] = substrate: O=C(O)C(=O)Cc1ccccc1; settings: 0.2 mM NADH, 50 mM Tris-HCl pH 7.0, 50°C, no FDP
Text: (§2) NADH oxidation assay on D-nLDH

NADH oxidation assay [4] = substrate: CC(=O)C(=O)O; settings: 0.2 mM NADH, 50 mM Tris-HCl pH 7.0, 50°C, no FDP
Text: as §2

B1: L-nLDH (Heyndrickxia coagulans) (protein)
chain: MKKVNRIAVVGTGAVGTSYCYAMINQGVAEELVLIDINEAKAEGEAMDLNHGLPFAPTPTRVWKGDYSDCGTADLVVITAGSPQKPGETRLDLVSKNAKIFKGMIKSIMDSGFNGIFLVASNPVDILTYVTWKESGLPKEHVIGSGTVLDSARLRNSLSAQFGIDPRNVHAAIIGEHGDTELPVWSHTNIGYDTIESYLQKGIIDEKTLDDIFVNTRDAAYHIIERKGATFYGIGMSLTRITRAILNNENSVLTVSAFLEGQYGNSDVYVGVPAIINRQGIREVVEIKLNEKEQEQFNHSVKVLKETMAPVL
notes: full-length ldhL in pET-28a, N- and C-terminal His tags kept, expressed in E. coli BL21(DE3), HisTrap purified
B1 showed a Km (NADH oxidation assay [1]) of 4.3 mM, a Vmax (NADH oxidation assay [1]) of 72.6 µmol/min/mg and a kcat (NADH oxidation assay [1]) of 47.2 s⁻¹. It also gave a kcat/Km (NADH oxidation assay [1]) of 11000 M⁻¹ s⁻¹, a Km (NADH oxidation assay [2]) of 2.6 mM and a Vmax (NADH oxidation assay [2]) of 1800 µmol/min/mg. The kcat (NADH oxidation assay [2]) was 1170 s⁻¹ and the kcat/Km (NADH oxidation assay [2]) was 450000 M⁻¹ s⁻¹.

B2: D-nLDH (Heyndrickxia coagulans) (protein)
chain: MRKVVAYETRADEFPLFQKFARKFDLDIKYIDDVLTPETAMEAKGAEAVTILGNYPVGSGTFKALRDVGVKYIGLRTAGNNHIDQEAAKAYGIRFSNVAYSPYCVADFATMLILMCVRKAKQILSRVEAQDFSVEGIQGREMRNLTIGIIGAGRIGSIVAKNLSGFGCNLIAHDTVERDELRGILKYVSLDELLEESDVITIHTPLFESTYHMINQERIAKIKDGVCIINCSRGAEVDTYALIAGIEAGKAGAAGIDVLEDEEGIFHYDRRTDILDHRQLAILRSFPNVIVTPHTAFYPNQAVSDMAEMALTSLVSFVETGKSRWEIKS
notes: full-length ldhD in pET-28a, N- and C-terminal His tags kept, expressed in E. coli BL21(DE3), HisTrap purified
B2 gave a Km (NADH oxidation assay [3]) of 4.4 mM, a Vmax (NADH oxidation assay [3]) of 23.5 µmol/min/mg and a kcat (NADH oxidation assay [3]) of 16.5 s⁻¹. For the same protein, the kcat/Km (NADH oxidation assay [3]) was 3900 M⁻¹ s⁻¹, the Km (NADH oxidation assay [4]) was 2.2 mM and the Vmax (NADH oxidation assay [4]) was 33.7 µmol/min/mg. For the same protein, the kcat (NADH oxidation assay [4]) was 23.6 s⁻¹ and the kcat/Km (NADH oxidation assay [4]) was 11000 M⁻¹ s⁻¹.

Reference: article PMC3080406, “Efficient Conversion of Phenylpyruvic Acid to Phenyllactic Acid by Using Whole Cells of Bacillus coagulans SDM” (PLoS ONE, 2011)
